Source: IntAct's records for PubMed 24275654

Legend:
[1] = target: tbb4a_human TUBB4A (UniProt P04350)
[2] = target: tbb5_human TUBB (UniProt P07437)
[3] = target: tbb6_human TUBB6 (UniProt Q9BUF5)
UniProt Q9BUF5, sequence (Q9BUF5 whole entry): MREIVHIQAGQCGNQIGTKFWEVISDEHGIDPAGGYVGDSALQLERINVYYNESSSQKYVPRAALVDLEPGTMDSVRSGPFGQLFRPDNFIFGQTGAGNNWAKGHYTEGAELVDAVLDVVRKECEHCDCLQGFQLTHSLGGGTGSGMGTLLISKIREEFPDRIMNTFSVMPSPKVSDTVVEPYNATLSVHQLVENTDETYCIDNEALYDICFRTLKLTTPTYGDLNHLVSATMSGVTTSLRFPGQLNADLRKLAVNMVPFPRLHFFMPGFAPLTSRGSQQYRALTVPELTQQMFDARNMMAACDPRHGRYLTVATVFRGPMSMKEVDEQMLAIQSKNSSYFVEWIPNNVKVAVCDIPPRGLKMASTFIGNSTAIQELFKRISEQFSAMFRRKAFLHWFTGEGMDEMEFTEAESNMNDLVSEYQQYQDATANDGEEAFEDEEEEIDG

UniProt P04350, sequence (P04350 whole entry): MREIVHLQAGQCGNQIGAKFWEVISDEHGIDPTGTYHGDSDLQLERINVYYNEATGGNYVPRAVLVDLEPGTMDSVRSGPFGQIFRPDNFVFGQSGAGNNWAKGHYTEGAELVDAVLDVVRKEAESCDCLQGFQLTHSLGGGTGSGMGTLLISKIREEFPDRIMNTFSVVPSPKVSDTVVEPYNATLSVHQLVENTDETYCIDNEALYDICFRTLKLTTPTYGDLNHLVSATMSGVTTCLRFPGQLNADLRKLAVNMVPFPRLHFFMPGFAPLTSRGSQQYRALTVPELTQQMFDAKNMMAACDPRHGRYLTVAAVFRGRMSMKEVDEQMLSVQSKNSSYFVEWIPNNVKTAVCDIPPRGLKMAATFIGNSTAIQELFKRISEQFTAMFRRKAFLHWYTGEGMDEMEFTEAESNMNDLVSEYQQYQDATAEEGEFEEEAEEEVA
UniProt P07437, sequence (P07437 whole entry): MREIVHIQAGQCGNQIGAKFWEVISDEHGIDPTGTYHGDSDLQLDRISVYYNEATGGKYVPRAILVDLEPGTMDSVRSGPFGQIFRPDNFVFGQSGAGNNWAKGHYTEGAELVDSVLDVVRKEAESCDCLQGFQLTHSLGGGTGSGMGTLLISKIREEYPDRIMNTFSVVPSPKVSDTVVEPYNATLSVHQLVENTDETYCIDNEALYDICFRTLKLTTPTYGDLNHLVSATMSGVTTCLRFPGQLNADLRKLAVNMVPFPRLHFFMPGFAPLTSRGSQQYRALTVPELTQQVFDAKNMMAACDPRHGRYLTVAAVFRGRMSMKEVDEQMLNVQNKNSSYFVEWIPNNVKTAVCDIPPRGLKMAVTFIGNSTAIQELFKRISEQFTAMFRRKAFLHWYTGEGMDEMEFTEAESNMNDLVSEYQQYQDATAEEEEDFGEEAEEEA

Substance	effect of a mutation on the interaction [1]	effect of a mutation on the interaction [2]	effect of a mutation on the interaction [3]
Leucine-rich repeat serine/threonine-protein kinase 2 (Homo sapiens), Q5S007 R1441H	decreasing interaction	decreasing interaction	–
Leucine-rich repeat serine/threonine-protein kinase 2 (Homo sapiens), Q5S007 T1491D	decreasing interaction	–	–
Leucine-rich repeat serine/threonine-protein kinase 2 (Homo sapiens), Q5S007 R1441C	increasing interaction	increasing interaction	–
Leucine-rich repeat serine/threonine-protein kinase 2 (Homo sapiens), Q5S007 T1343D	decreasing interaction	decreasing interaction	–
Leucine-rich repeat serine/threonine-protein kinase 2 (Homo sapiens), Q5S007 T1491A	increasing interaction	–	–
Leucine-rich repeat serine/threonine-protein kinase 2 (Homo sapiens), Q5S007 K1347A	disrupting interaction	disrupting interaction	disrupting interaction
Leucine-rich repeat serine/threonine-protein kinase 2 (Homo sapiens), Q5S007 R1441G	decreasing interaction	decreasing interaction	–
Leucine-rich repeat serine/threonine-protein kinase 2 (Homo sapiens), Q5S007 T1343A	increasing interaction	–	–
